Measurements reported in article PMC8184817, “Transmission of light signals from the light-oxygen-voltage core via the hydrophobic region of the β-sheet surface in aureochrome-1” (Scientific Reports, 2021).

Experiments:
Details in all cases: protein: recombinant; chain copies: 2; label: Alexa Fluor647 (EMSA); biotin (QCM); blunt; self-complementary palindrome, 2 copies
[1] = target: T1, PZ F219V (Vaucheria frigida? (VfAUREO1), UniProt A8QW55 113-348, C162S;C182S;F219V); test: EMSA; QCM; dark state; low EC50; EMSA: 5% polyacrylamide gel, 25 C, dark or blue light 5 W/m2; QCM: 27 MHz, QCM buffer, 25 C; buffer, salt and pH not given (earlier papers cited); EC50 values (nM, per monomer) only in figures
T1 sequence: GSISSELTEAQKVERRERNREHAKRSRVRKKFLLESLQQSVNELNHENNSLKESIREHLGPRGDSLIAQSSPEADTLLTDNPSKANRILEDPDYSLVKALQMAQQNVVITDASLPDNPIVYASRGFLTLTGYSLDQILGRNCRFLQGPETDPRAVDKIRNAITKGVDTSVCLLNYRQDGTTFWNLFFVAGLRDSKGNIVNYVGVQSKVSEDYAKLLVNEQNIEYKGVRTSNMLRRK

[2] = target: T2, PZ N218A (Vaucheria frigida? (VfAUREO1), UniProt A8QW55 113-348, C162S;C182S;N218A); test: EMSA; QCM; dark state; EC50 similar to wtPZ; EMSA: 5% polyacrylamide gel, 25 C, dark or blue light 5 W/m2; QCM: 27 MHz, QCM buffer, 25 C; buffer, salt and pH not given (earlier papers cited); EC50 values (nM, per monomer) only in figures
T2 sequence: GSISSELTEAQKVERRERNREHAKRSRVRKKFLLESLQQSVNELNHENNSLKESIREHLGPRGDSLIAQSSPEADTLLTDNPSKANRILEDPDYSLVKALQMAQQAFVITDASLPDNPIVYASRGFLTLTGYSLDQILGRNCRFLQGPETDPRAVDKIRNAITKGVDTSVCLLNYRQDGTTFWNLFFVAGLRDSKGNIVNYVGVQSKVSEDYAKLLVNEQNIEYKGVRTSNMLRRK

[3] = target: T3, PZ V314A (Vaucheria frigida? (VfAUREO1), UniProt A8QW55 113-348, C162S;C182S;V314A); test: EMSA; QCM; dark state; altered EC50; EMSA: 5% polyacrylamide gel, 25 C, dark or blue light 5 W/m2; QCM: 27 MHz, QCM buffer, 25 C; buffer, salt and pH not given (earlier papers cited); EC50 values (nM, per monomer) only in figures
T3 sequence: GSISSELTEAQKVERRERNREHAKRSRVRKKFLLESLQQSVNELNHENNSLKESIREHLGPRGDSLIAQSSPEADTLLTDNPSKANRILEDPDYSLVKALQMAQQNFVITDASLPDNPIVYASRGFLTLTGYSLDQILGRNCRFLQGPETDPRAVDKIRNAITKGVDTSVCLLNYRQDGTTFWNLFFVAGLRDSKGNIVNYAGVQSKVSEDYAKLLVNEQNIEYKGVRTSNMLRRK

[4] = target: T4, PZ V316A (Vaucheria frigida? (VfAUREO1), UniProt A8QW55 113-348, C162S;C182S;V316A); test: as above
T4 sequence: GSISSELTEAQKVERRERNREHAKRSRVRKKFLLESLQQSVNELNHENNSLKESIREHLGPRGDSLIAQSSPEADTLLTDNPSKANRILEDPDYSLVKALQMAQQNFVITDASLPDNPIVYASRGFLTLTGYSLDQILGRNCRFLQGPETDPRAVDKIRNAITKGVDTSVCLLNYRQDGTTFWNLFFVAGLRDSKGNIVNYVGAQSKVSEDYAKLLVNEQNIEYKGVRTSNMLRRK

[5] = target: T5, PZ L201A (Vaucheria frigida? (VfAUREO1), UniProt A8QW55 113-348, C162S;C182S;L201A); test: EMSA; QCM; dark state; EC50 lower than wtPZ; EMSA: 5% polyacrylamide gel, 25 C, dark or blue light 5 W/m2; QCM: 27 MHz, QCM buffer, 25 C; buffer, salt and pH not given (earlier papers cited); EC50 values (nM, per monomer) only in figures
T5 sequence: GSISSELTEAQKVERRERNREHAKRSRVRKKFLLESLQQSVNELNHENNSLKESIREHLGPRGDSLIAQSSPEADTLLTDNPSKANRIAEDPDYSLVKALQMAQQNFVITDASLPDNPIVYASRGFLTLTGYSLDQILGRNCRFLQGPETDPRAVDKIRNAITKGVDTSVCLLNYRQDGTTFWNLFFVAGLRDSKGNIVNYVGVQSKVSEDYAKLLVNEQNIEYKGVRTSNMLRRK

[6] = target: T6, PZ L208A (Vaucheria frigida? (VfAUREO1), UniProt A8QW55 113-348, C162S;C182S;L208A); test: as above
T6 sequence: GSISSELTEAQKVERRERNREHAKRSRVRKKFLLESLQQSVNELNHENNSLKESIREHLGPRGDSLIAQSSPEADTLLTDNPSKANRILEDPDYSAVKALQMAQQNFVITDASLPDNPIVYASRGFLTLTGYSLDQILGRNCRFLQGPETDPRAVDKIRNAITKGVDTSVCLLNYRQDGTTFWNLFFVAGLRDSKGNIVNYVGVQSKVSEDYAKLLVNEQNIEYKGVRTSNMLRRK

[7] = target: T7, PZ L201A/L208A/L212A (triple) (Vaucheria frigida? (VfAUREO1), UniProt A8QW55 113-348, C162S;C182S;L201A;L208A;L212A); test: as above
T7 sequence: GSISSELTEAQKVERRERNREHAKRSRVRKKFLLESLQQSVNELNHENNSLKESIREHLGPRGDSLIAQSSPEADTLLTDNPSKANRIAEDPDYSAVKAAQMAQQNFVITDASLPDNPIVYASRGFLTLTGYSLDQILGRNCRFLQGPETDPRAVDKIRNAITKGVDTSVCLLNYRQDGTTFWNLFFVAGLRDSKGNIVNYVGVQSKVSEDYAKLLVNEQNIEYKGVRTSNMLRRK

Measured: binding result

B1: dsApo (dsDNA)
DNA 1: GCTGTCTGACGTCAGACAGC
DNA 2: GCTGTCTGACGTCAGACAGC
binds: all assays above
